The values below are quoted from earlier work in PMC6667839.

The data set addresses IL-33 112-270 (Homo sapiens) (UniProt O95760).
Chain of UniProt O95760 (O95760 112-270): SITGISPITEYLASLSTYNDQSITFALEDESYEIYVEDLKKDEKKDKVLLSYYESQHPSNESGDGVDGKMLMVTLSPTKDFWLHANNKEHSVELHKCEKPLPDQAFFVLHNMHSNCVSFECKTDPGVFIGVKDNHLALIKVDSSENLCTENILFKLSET

For the substance sST2 (from UniProt Q01638), the Kd was 4 nM.
